# According to US20210087268A1 (YUHAN, published 2021):
# T1: TIGIT expressed on cells (TIGIT-expressing effector cell line of the Promega kit); TIGIT-overexpressing NK92 … (UniProt Q495A1 22-244, limits assumed)
# T1 sequence (looked up): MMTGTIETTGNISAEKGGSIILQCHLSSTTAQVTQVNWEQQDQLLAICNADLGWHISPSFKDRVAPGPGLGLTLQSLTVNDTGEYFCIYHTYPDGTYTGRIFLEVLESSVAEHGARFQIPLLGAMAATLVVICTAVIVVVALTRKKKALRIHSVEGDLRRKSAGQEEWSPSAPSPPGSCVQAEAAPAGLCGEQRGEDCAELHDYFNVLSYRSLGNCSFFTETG
# T2: human TIGIT-Fc (rhTIGIT-Fc, R&D Systems) (human, UniProt Q495A1 22-141)
# T2 construct: Bought protein; also called human TIGIT (rhTIGIT-Fc); not shown: Fc part of the bought fusion protein
# T2 sequence: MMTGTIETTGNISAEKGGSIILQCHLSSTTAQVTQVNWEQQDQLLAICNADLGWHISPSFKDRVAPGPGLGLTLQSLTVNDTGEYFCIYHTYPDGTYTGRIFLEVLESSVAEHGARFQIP
# T3: mouse TIGIT-Fc (rmTIGIT-Fc, R&D Systems) (mouse, UniProt P86176 29-148, limits assumed)
# T3 construct: Bought protein; also called mouse TIGIT (rmTIGIT-Fc); not shown: Fc part of the bought fusion protein
# T3 sequence (looked up): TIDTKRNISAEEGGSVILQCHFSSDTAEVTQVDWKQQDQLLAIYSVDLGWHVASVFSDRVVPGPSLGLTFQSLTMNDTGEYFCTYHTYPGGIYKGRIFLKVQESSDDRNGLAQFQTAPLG
# T4: human TIGIT expressed on CHO-S cells (CHO-hTIGIT) (human, UniProt Q495A1 22-244)
# T4 construct: also called CHO-TIGIT cell line; TIGIT on the cell surface
# T4 sequence: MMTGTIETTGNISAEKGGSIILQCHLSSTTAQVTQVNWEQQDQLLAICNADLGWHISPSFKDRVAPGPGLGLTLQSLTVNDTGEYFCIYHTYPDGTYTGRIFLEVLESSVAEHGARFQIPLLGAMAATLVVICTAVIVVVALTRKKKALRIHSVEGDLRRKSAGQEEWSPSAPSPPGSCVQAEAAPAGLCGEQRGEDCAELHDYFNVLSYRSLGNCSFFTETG
# Tests used:
# [1] = target: T1, TIGIT expressed on cells …; test: cell-based or functional assay
# [2] = target: T2, human TIGIT-Fc (rhTIGIT-Fc, R&D Systems); test: SPR (BIAcore T200), antibody immobilised on CM5 chip, TIGIT-Fc flowed
# Text: (§1) In order to measure binding abilities of the three types of anti-TIGIT antibodies produced in Example 2 to human TIGIT (rhTIGIT-Fc) and mouse TIGIT (rmTIGIT-Fc), surface plasmon resonance (SPR) using a BIAcore T200 (GE Healthcare) was used. The SPR method is based on the principle that the refractive index of light passing through a sensor chip changes according to the state of a substance coated on the sensor chip. When an antigen or antibody was made to flow into the chip coated with the antigen or antibody, the refractive index is changed due to binding therebetween and the affinity (KD) value is calculated from the measured value.
# (§2) An anti-TIGIT antibody was immobilized on a Series S CM5 sensor chip (GE Healthcare) to a level of 500 RU using a 10 mM acetate solution (pH 4.0) and an amine coupling kit (GE Healthcare). […] The association of the TIGIT-Fc proteins was measured at a rate of 30 μL/min for 600 seconds, the dissociation was measured for 2,000 seconds, and the regeneration was carried out in a 10 mM glycine solution (pH 1.5) at a rate of 100 μL/min for 25 seconds.
# [3] = target: T3, mouse TIGIT-Fc (rmTIGIT-Fc, R&D Systems); test: as above
# Text: as §1, §2
# [4] = target: T4, human TIGIT expressed on CHO-S cells …; test: flow cytometry on CHO-TIGIT cells
# Protocol: In order to identify the binding ability of the three types of anti-TIGIT antibodies produced in Example 2 to TIGIT expressed on the cell surface, TIGIT-overexpressing CHO cell line (hereinafter referred to as CHO-TIGIT cell line) was treated with anti-TIGIT antibodies and then the anti-TIGIT antibodies bound to TIGIT on the cell surface were detected using a fluorescence flow cytometer.
# Specifically, the CHO-TIGIT cell line was cultured in a 5% CO2 incubator at 37° C. for 48 to 72 hours using a chemical composition medium (CD FortiCHO Chemically Defined Medium+8 mM L-Glutamine+20 μg/mL Blasticidin+1% Anti-clumping agent). The cultured CHO-TIGIT cell line was harvested by centrifugation, diluted in FACS solution (PBS+5% FBS), and dispensed at a density of 1×10⁵ cells/well in a 96-well round bottom plate (Corning). Then, in order to completely remove the chemical composition medium remaining on the cell surface, the FACS solution was added, centrifuged at 2,000 rpm for 3 minutes and washed three times to remove the supernatant. The washed CHO-TIGIT cell line was re-suspended by addition of 100 μL of FACS solution. The anti-TIGIT antibody of each concentration, which was diluted to 2 times the final concentration using the FACS solution, was added at 100 μL to a 96-well round bottom plate in which the CHO-TIGIT cell line was dispensed, and incubated at 4° C. for 1 hour. Then, in order to remove the anti-TIGIT antibody remaining in the supernatant, without binding to the TIGIT on the cell surface, the FACS solution was added to each well, centrifuged at 2,000 rpm for 3 minutes, and washed three times to remove the supernatant. Then, in order to detect anti-TIGIT antibody bound to TIGIT on the cell surface, a goat anti-human IgG (H+L) cross-adsorbed secondary antibody (Invitrogen) was diluted to 10 μg/mL using a FACS solution, and 100 μL of the diluted antibody was incubated at 4° C. for 1 hour. After washing three times, each sample was transferred to a 12×75 mm tube (BD Biosciences) and analyzed using a fluorescence flow cytometer.
Binder,"binding inhibition (EC50), TIGIT/CD155 blockade assay, luminescence fold response [1] [nM]",Kd [2] [nM],koff [2] [s⁻¹],kon [2] [M⁻¹ s⁻¹],Kd [3] [nM],koff [3] [s⁻¹],kon [3] [M⁻¹ s⁻¹],EC50 [4] [µg/mL]
"F04-10-IgG1 (antibody, V domains shown, also called antibody based on the F04-10 clones) VH: EVQLLESGGGLVQPGGSLRLSCAASGFTFSSYYMSWVRQAPGKGLEWVSSIGSGSPSSTYYADSVKGRFTISRDNSKNTLYLQMNSLRAEDTAVYYCARSSYSGGNGYYYYAYAFDYWGQGTLVTVSS VL: EIVLTQSPGTLSLSPGERATLSCRASQSVSSSYLAWYQQKPGQAPRLLIYGASSRATGIPDRFSGSGSGTDFTLTISRLEPEDFAVYYCQQGYHRYATFGQGTKVEIK",23.9,0.533,3.76e-05,70500,0.245,2.93e-05,120000,0.0164
"10A7 antibody (antibody, V domains shown) VH: EVQLVESGGGLTQPGKSLKLSCEASGFTFSSFTMHWVRQSPGKGLEWVAFIRSGSGIVFYADAVRGRFTISRDNAKNLLFLQMNDLKSEDTAMYYCARRPLGHNTFDSWGQGTLVTVSS VL: DIVMTQSPSSLAVSPGEKVTMTCKSSQSLYYSGVKENLLAWYQQKPGQSPKLLIYYASIRFTGVPDRFTGSGSGTDYTLTITSVQAEDMGQYFCQQGINNPLTFGDGTKLEIKR",,1.19,0.000193,162000,0.182,8.91e-05,490000,0.0165

# More lines, now with the values ahead:
"binding inhibition (EC50), TIGIT/CD155 blockade assay, luminescence fold response [1] [nM]",Kd [2] [nM],koff [2] [s⁻¹],kon [2] [M⁻¹ s⁻¹],Kd [3] [nM],koff [3] [s⁻¹],kon [3] [M⁻¹ s⁻¹],EC50 [4] [µg/mL],Binder
581,1.31,4.41e-05,33700,3.2,0.000201,62800,0.069,"S64-39-IgG1 (antibody, V domains shown, also called 564-39-IgG1 [sic]; antibody based on the S64-39 clones) VH: EVQLLESGGGLVQPGGSLRLSCAASGFTFSNYAMSWVRQAPGKGLEWVSGISPSGSSIYYADSVQGRFTISRDNSKNTLYLQMNSLRAEDTAVYYCAKAIRTCSLSHCYYYYGMDVWGQGTLVTVSS VL: QSVLTQPPSASGTPGQRVTISCSSSSSNIGSNAVNWYQQLPGTAPKLLIYYDNQRPSGVPDRFSGSKSGTSASLAISGLRSEDEADYYCATWDYSLSGYVFGGGTKLTVL"
1080,1.15,3.23e-05,28200,3.12,0.000194,62200,0.0808,"S64-39-IgG4 (antibody, V domains shown, also called 564-39-IgG4 [sic]) VH: EVQLLESGGGLVQPGGSLRLSCAASGFTFSNYAMSWVRQAPGKGLEWVSGISPSGSSIYYADSVQGRFTISRDNSKNTLYLQMNSLRAEDTAVYYCAKAIRTCSLSHCYYYYGMDVWGQGTLVTVSS VL: QSVLTQPPSASGTPGQRVTISCSSSSSNIGSNAVNWYQQLPGTAPKLLIYYDNQRPSGVPDRFSGSKSGTSASLAISGLRSEDEADYYCATWDYSLSGYVFGGGTKLTVL"
